According to patent publication EP2545075B1 (NovelMed Therapeutics, Inc., dated 2020):
One block for each binder: values may come before it.

How the values were obtained:
[1] = target: T1, human properdin (human, UniProt P27918 28-469); assay: cell-based or functional assay
[2] = target: T1, human properdin; assay: Properdin ELISA
[3] = target: T1, human properdin; assay: Competition ELISA: properdin (50 nM) plus antibody on C3b-coated wells
[4] = target: T1, human properdin; assay: Properdin binding assay (Fig. 27)

T1 sequence (P27918 28-469 limits assumed): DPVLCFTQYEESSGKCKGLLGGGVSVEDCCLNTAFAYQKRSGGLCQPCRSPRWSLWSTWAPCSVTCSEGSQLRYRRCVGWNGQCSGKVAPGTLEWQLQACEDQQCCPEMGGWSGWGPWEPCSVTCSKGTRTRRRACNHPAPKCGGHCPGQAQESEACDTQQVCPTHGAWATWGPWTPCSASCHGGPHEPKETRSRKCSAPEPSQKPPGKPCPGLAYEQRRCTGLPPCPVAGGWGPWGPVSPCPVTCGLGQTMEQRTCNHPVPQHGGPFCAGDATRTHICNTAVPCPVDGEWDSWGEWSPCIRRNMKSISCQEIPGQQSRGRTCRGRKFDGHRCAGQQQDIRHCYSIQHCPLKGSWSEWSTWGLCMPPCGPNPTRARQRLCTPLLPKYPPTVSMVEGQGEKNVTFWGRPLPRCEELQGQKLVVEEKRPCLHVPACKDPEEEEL

IC50 of inhibition in erythrocyte lysis assay using rabbit erythrocytes [1]: 20 to 30 nM
B1: NM9401-IgG (antibody, V domains shown)
VH: QVQLQQSAPELARPGASVKMSCTASGYIFTNYPIHWVKQRPGQGLEWIGFIDPGGGYDEPDERFRDRATLTADKSSSTAYMQLSSLTSEDSAIYYCARRGGGYYLDYWGQGTTLTVSS
VL: DIQMTQTTSSLSASLGDRVTISCRASQDISFFLNWYQQKPDGTVKLLIYYTSRYHSGVPSRFSGSGSGTDFSLTINNLEQEDFATYFCQHGNTLPWTFGGGTKLEIK
modifications: Biotinylated in Example 5 (site not stated).

Kd [2]: ~0.054 nM
IC50 of inhibition in erythrocyte lysis assay using rabbit erythrocytes [1]: 20 to 30 nM
B2: BAP010_1 (antibody, IgG1, V domains shown)
VH: QVQLQQSAPELARPGASVKMSCTASGYIFTNYPIHWVKQRPGQGLEWIGFIDPGGGYDEPDERFRDRATLTADKSSSTAYMQLSSLTSEDSAIYYCARRGGGYYLDYWGQGTTLTVSS
VL: DIQMTQTTSSLSASLGDRVTISCRASQDISFFLNWYQQKPDGTVKLLIYYTSRYHSGVPSRFSGSGSGTDFSLTINNLEQEDFATYFCQHGNTLPWTFGGGTKLEIK
notes: Chimeric full-length IgG1/kappa carrying the variable domains of NM9401, expressed in CHO-S cells; also called chimeric anti-properdin monoclonal antibody; recombinant antibody BAP010_1

IC50 [3]: 72 nM
molar ratio of antibody to properdin [3]: 1.2
B3: NM9401-Fab (Fab, V domains shown)
VH: QVQLQQSAPELARPGASVKMSCTASGYIFTNYPIHWVKQRPGQGLEWIGFIDPGGGYDEPDERFRDRATLTADKSSSTAYMQLSSLTSEDSAIYYCARRGGGYYLDYWGQGTTLTVSS
VL: DIQMTQTTSSLSASLGDRVTISCRASQDISFFLNWYQQKPDGTVKLLIYYTSRYHSGVPSRFSGSGSGTDFSLTINNLEQEDFATYFCQHGNTLPWTFGGGTKLEIK
notes: Fab fragment of the murine antibody NM9401; also called anti-properdin Fab

IC50 [3]: 29 nM
molar ratio of antibody to properdin [3]: 0.5
B4: NM9401-F(ab')2 (other)
VH: QVQLQQSAPELARPGASVKMSCTASGYIFTNYPIHWVKQRPGQGLEWIGFIDPGGGYDEPDERFRDRATLTADKSSSTAYMQLSSLTSEDSAIYYCARRGGGYYLDYWGQGTTLTVSS
VL: DIQMTQTTSSLSASLGDRVTISCRASQDISFFLNWYQQKPDGTVKLLIYYTSRYHSGVPSRFSGSGSGTDFSLTINNLEQEDFATYFCQHGNTLPWTFGGGTKLEIK
modifications: F(ab')2 has two identical arms joined by hinge disulfides. The letters give one arm's variable domains.
notes: F(ab')2 fragment of the murine antibody NM9401; also called anti-properdin F(ab')2

binding result [4]: binds
B5: BAP010hum03 (antibody, human IgG1, V domains shown)
VH: EVQLVQSGAEVKKPGESLRISCKGSGYIFTNYPIHWIRQSPSRGLEWLGFIDPGGGYDEPDERFRDRVTISADKSISTAYLQWSSLKASDTAMYYCARRGGGYYLDYWGQG
VL: DIQMTQSPSSLSASVGDRVTITCRASQDISFFLNWYQQKPGKAPKLLIYYTSRYHSGVPSRFSGSGSGTEFTLTISSLQSEDFAVYYCQHGNTLPWTFGQG
notes: Humanized clone; The variable domains were cloned into the mammalian expression vector used for human IgG1/kappa; also called BAP010hum03_HC

binding result [4]: binds
B6: BAP010hum10 (antibody, human IgG1, V domains shown)
VH: QVQLQESGPGLVKPSQTLSLTCTVSGYIFTNYPIHWVRQATGQGLEWMGFIDPGGGYDEPDERFRDRVTITADKSTSTAYMELSSLRSEDTAVYYCARRGGGYYLDYWGQG
VL: DIQMTQSPSSLSASVGDRVTITCRASQDISFFLNWYQQKPGKAPKLLIYYTSRYHSGIPPRFSGSGYGTEFTFTISSLEAEDAATYYCQHGNTLPWTFGQG
notes: Humanized clone; The variable domains were cloned into the mammalian expression vector used for human IgG1/kappa; also called BAP010hum10_HC

binding result [4]: binds
B7: BAP010hum02 (antibody, human IgG1, V domains shown)
VH: QVQLQESGPGLVKPSQTLSLTCTVSGYIFTNYPIHWVRQAPGKGLEWVSFIDPGGGYDEPDERFRDRVTISVDTSKNQFSLKLSSVTAADTAVYYCARRGGGYYLDYWGQG
VL: EIVLTQSPATLSLSPGERATLSCRASQDISFFLNWFQQRPGQSPRRLIYYTSRYHSGIPPRFSGSGYGTDFTLTINNIESEDAAYYFCQHGNTLPWTFGQG
notes: Humanized clone; The variable domains were cloned into the mammalian expression vector used for human IgG1/kappa; also called BAP010hum02_HC
